Patent US20240132615A1 (ICHNOS SCIENCES, published 2024)
Values belong to the binder of their own block, whether it stands above or below them.

Tests used:
[1] = molecular target: T1, human BCMA on multiple myeloma cells (human, UniProt Q02223 1-184); assay: flow cytometry on NCI-H929 CD38 KO cells (BCMA++CD38-), anti-human IgG secondary, RFI
T1 construct: whole, on cells; Here the protein is the cell lines' own; also called B-cell maturation antigen; TNFRSF17
T1 sequence (looked up): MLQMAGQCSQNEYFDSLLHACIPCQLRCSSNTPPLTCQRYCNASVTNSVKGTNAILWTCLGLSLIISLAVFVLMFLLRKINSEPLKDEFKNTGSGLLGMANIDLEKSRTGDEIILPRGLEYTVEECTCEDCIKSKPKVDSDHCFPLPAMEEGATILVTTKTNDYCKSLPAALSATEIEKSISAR

[2] = molecular target: T1, human BCMA on multiple myeloma cells; assay: flow cytometry on NCI-H929 CD38 KO cells; one-site binding fit
[3] = molecular target: T1, human BCMA on multiple myeloma cells; assay: flow cytometry on NCI-H929 WT cells; one-site binding fit
[4] = molecular target: T2, human CD3 on primary human T cells (human, UniProt P07766 23-207; P04234 22-171; P09693 23-182; P20963 22-164); assay: flow cytometry on isolated human primary T cells gated CD38-negative; one-site binding fit
T2 construct: whole, on cells; Endogenous CD3 complex on isolated human T cells, gated CD38-negative; also called CD3-expressing T cells; human CD38 negative T cells

[5] = molecular target: T1, human BCMA on multiple myeloma cells; assay: flow cytometry on NCI-H929 cells (BCMA++CD38++), anti-human IgG secondary, RFI
[6] = molecular target: T1, human BCMA on multiple myeloma cells; assay: flow cytometry on KMS-12-BM cells; one-site binding fit
[7] = molecular target: T1, human BCMA on multiple myeloma cells; assay: flow cytometry on KMS-12-BM cells (BCMA+CD38+), anti-human IgG secondary, RFI
[8] = molecular target: T3, human CD3 on primary human CD38-negative T cells (human, UniProt P07766 23-207; P04234 22-171; P09693 23-182); assay: flow cytometry on primary human CD38-negative T cells, one-site binding fit
T3 construct: whole, on cells; Native CD3 within the TCR/CD3 complex on isolated human T cells, gated CD38-negative

[9] = molecular target: T4, human CD38 on multiple myeloma cells (human, UniProt P28907 1-300); assay: flow cytometry on NCI-H929 BCMA KO cells (BCMA-CD38++), anti-human IgG secondary, RFI
T4 construct: whole, on cells; Here the protein is the cell lines' own

[10] = molecular target: T5, recombinant cynomolgus monkey CD38-ECD-C-his protein (cynomolgus monkey, UniProt Q5VAN0 45-301); assay: SPR, Fab as analyte, captured cynomolgus CD38-his
T5 construct: made in house; Q5VAN0 residues 43-301 (residue 44 deleted) with C-terminal 6-His; also called cynomolgus monkey CD38-C-His; recombinant cynomolgus monkey CD38 protein

[11] = molecular target: T6, recombinant human CD38 antigen for crystallography (hsCD38 ECD) (human, UniProt P28907 45-300); assay: X-ray crystal structure of the complex, 3.4 Å
T6 construct: also called ectodomain of hsCD38

[12] = molecular target: T7, Biotinylated Human CD38 Protein, Avitag, His Tag (Acrobiosystems CD8-H82E7) (human, UniProt P28907 43-300, biotinylated); assay: SPR, Fab as analyte, immobilised biotinylated human CD38;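 further: biacore T200 at 25 °C, single-cycle kinetics with Fab from 7.8 to 2000 nM, 3 min association then 5 min dissociation, fitted with a 1:1 Langmuir model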
T7 construct: bought protein; also called biotinylated recombinant human CD38 protein; human CD38-avi-his

[13] = molecular target: T8, human CD3 on cells (HPB-ALL cells, primary human T cells) (human, UniProt P07766 23-207); assay: flow cytometry on CD4+ T cells in human PBMCs, anti-human IgG PE secondary
T8 construct: whole, on cells; only the epsilon chain is written

[14] = molecular target: T3, human CD3 on primary human …; assay: flow cytometry on CD38-negative primary human T cells, RFI after subtraction of the negative control, six donors
[15] = molecular target: T8, human CD3 on cells (HPB-ALL cells, …); assay: flow cytometry, human CD4+ T cells

T3 sequence (P07766 23-207, chain 1 of 3): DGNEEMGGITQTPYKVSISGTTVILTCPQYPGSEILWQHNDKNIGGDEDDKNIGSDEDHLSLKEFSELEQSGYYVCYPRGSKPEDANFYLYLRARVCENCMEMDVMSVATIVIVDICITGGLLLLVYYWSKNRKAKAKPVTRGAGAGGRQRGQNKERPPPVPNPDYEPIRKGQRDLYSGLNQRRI
T3 sequence (P04234 22-171, chain 2 of 3): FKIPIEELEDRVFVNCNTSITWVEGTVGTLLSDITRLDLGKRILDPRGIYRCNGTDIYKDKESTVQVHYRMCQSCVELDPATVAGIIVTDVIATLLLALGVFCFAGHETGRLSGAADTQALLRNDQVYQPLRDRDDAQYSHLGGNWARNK
T3 sequence (P09693 23-182, chain 3 of 3): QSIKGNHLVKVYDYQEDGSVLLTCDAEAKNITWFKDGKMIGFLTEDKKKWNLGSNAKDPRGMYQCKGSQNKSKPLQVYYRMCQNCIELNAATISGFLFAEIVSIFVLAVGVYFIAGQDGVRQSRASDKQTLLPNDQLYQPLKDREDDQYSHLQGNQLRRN
T8 sequence (P07766 23-207): as the sequence (P07766 23-207, chain 1 of 3) above
T2 sequence (P07766 23-207, chain 1 of 4): as the sequence (P07766 23-207, chain 1 of 3) above
T2 sequence (P04234 22-171, chain 2 of 4): as the sequence (P04234 22-171, chain 2 of 3) above
T2 sequence (P09693 23-182, chain 3 of 4): as the sequence (P09693 23-182, chain 3 of 3) above
T2 sequence (P20963 22-164, chain 4 of 4): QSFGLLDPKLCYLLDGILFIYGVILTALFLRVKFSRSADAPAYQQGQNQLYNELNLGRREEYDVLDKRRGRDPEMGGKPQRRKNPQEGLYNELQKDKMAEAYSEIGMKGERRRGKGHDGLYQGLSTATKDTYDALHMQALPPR

EC50 (read off the curve) [1]: ~7 nM | Kd [2]: 8.1 nM | Kd [3]: 6 nM | Kd [4]: 252 nM | EC50 (read off the curve) [5]: ~6 nM | Kd [6]: 3.9 nM | EC50 (read off the curve) [7]: ~3 nM
B1: alnuctamab (bispecific antibody)
chain 1: EVQLLESGGGLVQPGGSLRLSCAASGFTFSDNAMGWVRQAPGKGLEWVSAISGPGSSTYYADSVKGRFTISRDNSKNTLYLQMNSLRAEDTAVYYCAKVLGWFDYWGQGTLVTVSSASTKGPSVFPLAPSSKSTSGGTAALGCLVEDYFPEPVTVSWNSGALTSGVHTFPAVLQSSGLYSLSSVVTVPSSSLGTQTYICNVNHKPSNTKVDEKVEPKSCDKTHTCPPCPAPEAAGGPSVFLFPPKPKDTLMISRTPEVTCVVVDVSHEDPEVKFNWYVDGVEVHNAKTKPREEQYNSTYRVVSVLTVLHQDWLNGKEYKCKVSNKALGAPIEKTISKAKGQPREPQVCTLPPSRDELTKNQVSLSCAVKGFYPSDIAVEWESNGQPENNYKTTPPVLDSDGSFFLVSKLTVDKSRWQQGNVFSCSVMHEALHNHYTQKSLSLSPGK
chain 2: EIVLTQSPGTLSLSPGERATLSCRASQSVSDEYLSWYQQKPGQAPRLLIHSASTRATGIPDRFSGSGSGTDFTLAISRLEPEDFAVYYCQQYGYPPDFTFGQGTKVEIKRTVAAPSVFIFPPSDRKLKSGTASVVCLLNNFYPREAKVQWKVDNALQSGNSQESVTEQDSKDSTYSLSSTLTLSKADYEKHKVYACEVTHQGLSSPVTKSFNRGEC
chain 3: not shown
chain 4: EVQLLESGGGLVQPGGSLRLSCAASGFTFSTYAMNWVRQAPGKGLEWVSRIRSKYNNYATYYADSVKGRFTISRDDSKNTLYLQMNSLRAEDTAVYYCVRHGNFGNSYVSWFAYWGQGTLVTVSSASVAAPSVFIFPPSDEQLKSGTASVVCLLNNFYPREAKVQWKVDNALQSGNSQESVTEQDSKDSTYSLSSTLTLSKADYEKHKVYACEVTHQGLSSPVTKSFNRGEC

Kd [8]: 80 nM | Max binding (RFI) [8]: 103000 RFI
B2: 83A10-TCBcv (bispecific antibody, human IgG1, kappa, L234A L235A)
chain 1: not shown
chain 2: not shown
chain 3: not shown
chain 4: EVQLLESGGGLVQPGGSLRLSCAASGFTFSTYAMNWVRQAPGKGLEWVSRIRSKYNNYATYYADSVKGRFTISRDDSKNTLYLQMNSLRAEDTAVYYCVRHGNFGNSYVSWFAYWGQGTLVTVSSASVAAPSVFIFPPSDEQLKSGTASVVCLLNNFYPREAKVQWKVDNALQSGNSQESVTEQDSKDSTYSLSSTLTLSKADYEKHKVYACEVTHQGLSSPVTKSFNRGEC
notes: CD3xBCMA bispecific comparator; also called EM-801; CD3xBCMA benchmark

binding result [9]: no binding (tested: 800 nM) | Kd [4]: 155 nM
B3: 83A10-TCBcv (bispecific antibody, human IgG1, kappa, L234A L235A)
chain 1: not shown
chain 2: not shown
chain 3: not shown
chain 4: EVQLLESGGGLVQPGGSLRLSCAASGFTFSTYAMNWVRQAPGKGLEWVSRIRSKYNNYATYYADSVKGRFTISRDDSKNTLYLQMNSLRAEDTAVYYCVRHGNFGNSYVSWFAYWGQGTLVTVSSASVAAPSVFIFPPSDEQLKSGTASVVCLLNNFYPREAKVQWKVDNALQSGNSQESVTEQDSKDSTYSLSSTLTLSKADYEKHKVYACEVTHQGLSSPVTKSFNRGEC
notes: Comparator CD3xBCMA bispecific antibody; also called CD3 x BCMA benchmark

Kd [10]: 170 nM | binding result [11]: binds | Kd [12]: 115 nM
B4: Anti-CD38-UCP03-B3 FAB (Fab, V domains shown)
VH: QVQLVQSGAEVKKPGSSVKVSCKASGGDFTLYSISWVRQAPGQGLEWMGRIIPTGANANYAQKFQGRVTITADESTSTAYMELSSLRSEDTAVYYCARSWPSLGSGWFDIWGQGTLVTVSS
VL: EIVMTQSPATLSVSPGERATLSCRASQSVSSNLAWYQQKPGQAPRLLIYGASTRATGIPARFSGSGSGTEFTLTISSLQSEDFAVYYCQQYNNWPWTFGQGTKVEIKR
notes: Fab; also called anti-CD38-B3; anti-CD38-B3 Fab

binding result [13]: no binding (tested: 800 nM)
B5: Anti-CD3-UCP07-F3 IgG1LALA (antibody, V domains shown)
VH: EVQLLESGGGLVQPGGSLRLSCAASGFNFSGHAVGWVRQAPGKGLEWVSAISQNGGYTLYADSVKGRFTISRDNSKNTLYLQMNSLRAEDTAVYYCARAASYGLDYALDIWGQGTLVTVSS
VL: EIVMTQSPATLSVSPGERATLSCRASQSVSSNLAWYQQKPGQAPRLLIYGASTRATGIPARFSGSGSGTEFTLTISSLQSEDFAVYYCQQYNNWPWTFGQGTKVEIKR
notes: IgG1 LALA

binding result [13]: no binding (tested: 800 nM)
B6: Anti-CD3-UCP07-B2 IgG1LALA (antibody, V domains shown)
VH: EVQLVESGGGLVKPGGSLRLSCAASGFDFGKAWMAWVRQAPGKGLEWVGRIKSDFKGGDTIYAAPVKGRFTISRDDSKNTLYLQMNSLKTEDTAVYYCARGRSRGVSEFDYWGQGTLVTVSS
VL: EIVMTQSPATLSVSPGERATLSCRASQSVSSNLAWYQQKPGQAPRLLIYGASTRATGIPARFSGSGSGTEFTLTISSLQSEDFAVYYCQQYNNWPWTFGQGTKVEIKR
notes: IgG1 LALA

binding result [13]: no binding (tested: 800 nM)
B7: Anti-CD3-UCP07-A4 IgG1LALA (antibody, V domains shown)
VH: EVQLLESGGGLVQPGGSLRLSCAASGSTFRRYVMGWVRQAPGKGLEWVSAISQQGGYTYYADSVKGRFTISRDNSKNTLYLQMNSLRAEDTAVYYCARSSSSAFDVWGQGTLVTVSS
VL: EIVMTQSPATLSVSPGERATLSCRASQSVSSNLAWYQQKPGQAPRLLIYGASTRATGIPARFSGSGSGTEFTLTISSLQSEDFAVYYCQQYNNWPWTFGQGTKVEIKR
notes: IgG1 LALA

binding result [14]: no binding (tested: 800 nM) | Max binding (RFI) [8]: 60 RFI
B8: TNB-F2B BEAT Fc (bispecific antibody, human IgG1, kappa, L234A L235A)
chain 1: EVQLVESGGGLVQPGRSLRLSCAASGFTFDDYAMHWVRQAPGKGLEWVSGISWNSGSIGYADSVKGRFTISRDNAKNSLYLQMNSLRAEDTALYYCAKDSRGYGDYRLGGAYWGQGTLVTVSSASTKGPSVFPLAPSSKSTSGGTAALGCLVKDYFPEPVTVSWNSGALTSGVHTFPAVLQSSGLYSLSSVVTVPSSSLGTQTYICNVNHKPSNTKVDKKVEPKSCDKTHTCPPCPAPEAAGGPSVFLFPPKPKDTLMISRTPEVTCVVVDVSHEDPEVKFNWYVDGVEVHNAKTKPREEQYNSTYRVVSVLTVLHQDWLNGKEYKCKVSNKALPAPIEKTISKAKGQPREPAVYTLPPSREEMTKNQVKLVCLVTGFYPSDIAVEWESSGQPENNYYTTPPMLDSDGSFSLVSWLNVDKSRWQQGNIFSCSVMHEALHNRFTQKSLSLSPG
chain 2: EVQLLESGGGLVQPGGSLRLSCAASGFTVSSYGMSWVRQAPGKGPEWVSGIRGSDGSTYYADSVKSRFTISRDNSKNTLYLQMNSLRAEDTAVYYCAKQGENDGPFDHRGQGTLVTVSSGGGGSEVQLLESGGGLVQPGGSLRLSCAASGFTVSSYGMSWVRQAPGKGPEWVSGIRGSDGSTYYADSVKSRFTISRDNSKNTLYLQMNSLRAEDTAVYYCAKQGENDGPFDHRGQGTLVTVSSGGGGTDKTHTCPPCPAPEAAGGPSVFLFPPKPKDTLMISRTPEVTCVVVDVSHEDPEVKFNWYVDGVEVHNAKTKPREEQYNSTYRVVSVLTVLHQDWLNGKEYKCKVSNKALPAPIEKTISKAKGQPREPEVATFPPSRDELTKNQVTLVCLVTGFYPSDIAVEWESNGQPENNYKTDPPLLESQGSFALSSRLRVDKSRWQQGNVFSCSVMHEALHNHYTQKSLSLSPG
light: not shown
notes: CD3 Fab (TNB-F2B) x BCMA dAb-dAb (TNB-BCMA) on a silenced (LALA) BEAT Fc; also called CD3xBCMA benchmark

EC50 (read off the curve) [13]: ~40 nM | MFI at 800 nM [15]: 45200 MFI
B9: Anti-CD3-UCP06-C1 IgG1LALA (antibody, V domains shown)
VH: QVQLVQSGAEVKKPGSSVKVSCKASGGKFSRYAISWVRQAPGQGLEWMGGIIPKGGYAEYAQKFQGRVTITADESTSTAYMELSSLRSEDTAVYYCARYGYSLYMDIWGQGTLVTVSS
VL: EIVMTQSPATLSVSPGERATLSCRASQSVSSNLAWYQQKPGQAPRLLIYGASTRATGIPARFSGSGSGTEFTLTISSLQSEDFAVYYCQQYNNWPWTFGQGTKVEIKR
notes: IgG1 LALA; also called anti-CD3-C1
